According to article PMC3671775:

Biological target: extracellular fragment of human macrophage galactose receptor (MGL) isoform 3 (human)
Experiment: cross-linking

extracellular fragment of human macrophage galactose receptor (MGL) isoform 3 (domain or fragment)
stoichiometry N: 3
